The target in the data set is NSUN4 (Homo sapiens, UniProt Q96CB9 26-384). Description: EMSA; NSUN4 without MTERF4; protein 0-2.56 uM; EMSA with 40 ng RNA and 0-2.56 uM protein, essentially as in cited ref 15; buffer, salt, pH and temperature not given. Particulars: protein: recombinant; single strand folded, closed by added GGG/CCC. In general terms: A gel shift assay detects complexes by their altered migration in electrophoresis.
Sequence of NSUN4 (Q96CB9 26-384): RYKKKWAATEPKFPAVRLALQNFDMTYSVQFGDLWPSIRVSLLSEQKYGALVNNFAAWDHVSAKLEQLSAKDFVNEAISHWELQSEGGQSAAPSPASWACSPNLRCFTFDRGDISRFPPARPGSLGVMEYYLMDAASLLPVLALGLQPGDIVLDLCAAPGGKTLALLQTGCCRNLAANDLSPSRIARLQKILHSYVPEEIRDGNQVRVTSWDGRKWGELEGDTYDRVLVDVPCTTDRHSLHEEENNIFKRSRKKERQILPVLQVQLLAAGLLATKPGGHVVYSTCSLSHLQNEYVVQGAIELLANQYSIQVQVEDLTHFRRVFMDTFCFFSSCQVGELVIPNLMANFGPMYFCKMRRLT

B1: ds12S:878-949 (structured_RNA)
RNA: GGGGUUGAACAGGGCCCUGAAGCGCGUACACACCGCCCGUCACCCUCCUCAAGUAUACUUCAAAGGACAUUUAACCCC
B1: the binding result is on record as “binds”.

Source of the values: publication PMC3916286, “NSUN4 Is a Dual Function Mitochondrial Protein Required for Both Methylation of 12S rRNA and Coordination of Mitoribosomal Assembly”.
